Test results: patent US20140072980A1 (Regeneron, published 2014)

How the values were obtained:
[1] = target: T1, human Fc homodimer (human, UniProt P01861 120-325 = IgG part); assay: SPR (Biacore 2000), antibody captured on anti-mouse-Fc surface, Fc dimer injected
T1 construct: His 95 and Tyr 96 (IMGT) in CH3; also called Fc/Fc; hFc
Method: (§1) Measurements to determine binding affinities and kinetic constants were made on a Biacore 2000 instrument. Antibodies (each of Ab1-Ab8) were captured onto an anti-mouse-Fc sensor surface (Mab capture format), and human Fc (SEQ ID NO 26) homodimers, human Fc* homodimers (SEQ ID NO:42), or Fc/Fc* heterodimers were injected over the surface. Kinetic association (kₐ) and dissociation (kd) rate constants were determined by processing and fitting the data to a 1:1 binding model using Scrubber 2.0 curve fitting software.

[2] = target: T2, human Fc* homodimer (human); assay: SPR (Biacore 2000), antibody captured on anti-mouse-Fc surface, Fc dimer injected, 1:1 fit
T2 construct: also called Fc*/Fc*; human ΔAdpFc polypeptide
Method: as §1

[3] = target: IgG1 Fc/Fc* bispecific antibody; assay: flow cytometry sandwich: antibody displayed on CHO cells by CSCP FcγR, detected with FITC-labeled Ab6; signal needs both capture and detection
[4] = target: IgG1 Fc*/Fc* monospecific antibody; assay: as above
[5] = target: IgG1 Fc/Fc monospecific antibody; assay: as above
[6] = target: IgG1 Fc/Fc* bispecific antibody; assay: flow cytometry sandwich: antibody displayed on CHO cells by CSCP ScFv-FcγR, hFc block, detected with FITC-labeled Ab6; signal needs both capture and detection
Method: (§2) The Ab2-derived anti-Fc-specific ScFv-FcγR surface capture system was tested for its ability to detect and enrich for cells that produce bispecific antibodies. To assess the ability to detect bispecific antibodies, which harbor the 95R/435R-96F/436F substitution in one of the CH3 domains (designated Fc*), various antibodies were expressed in the Ab2-derived anti-Fc-specific ScFv-FcγR surface capture cell line, using hFc as the blocking molecule, and a FITC-labeled Ab6 anti-Fc* antibody (e.g., mAb with HC of SEQ ID NO:40, and LC of SEQ ID NO:41) as the detection molecule. The Ab2-derived anti-Fc-specific ScFv-FcγR surface capture cell line was able to detect and distinguish the bispecific antibody (Fc/Fc*) over any Fc*/Fc* or Fc/Fc monospecific antibodies using the Fc*-specific Ab6 as the detection molecule (Table 4). The wildtype FcγR surface capture cell line was not able to distinguish between the Fc/Fc*, Fc*/Fc*, and Fc/Fc IgG4 species, since FcγR is unable to bind, or binds at very low affinity to IgG4.

[7] = target: IgG1 Fc*/Fc* monospecific antibody; assay: as above
Method: as §2

[8] = target: IgG1 Fc/Fc monospecific antibody; assay: as above
Method: as §2

[9] = target: IgG4 Fc/Fc* bispecific antibody; assay: as above
Method: as §2

[10] = target: IgG4 Fc*/Fc* monospecific antibody; assay: as above
Method: as §2

[11] = target: IgG4 Fc/Fc monospecific antibody; assay: as above
Method: as §2

[12] = target: IgG1 Fc/Fc* bispecific antibody; assay: flow cytometry sandwich: antibody displayed on CHO cells by CSCP FcγR, detected with labeled Ab2; signal needs both capture and detection
[13] = target: IgG1 Fc/Fc monospecific antibody; assay: as above
[14] = target: IgG4 Fc/Fc* bispecific antibody; assay: as above
[15] = target: IgG4 Fc*/Fc* monospecific antibody; assay: as above
[16] = target: IgG4 Fc/Fc monospecific antibody; assay: as above
[17] = target: IgG1 Fc/Fc* bispecific antibody; assay: flow cytometry sandwich: antibody displayed on CHO cells by CSCP ScFv*-FcγR, hFc block, detected with Alexa 488-labeled Ab2; signal needs both capture and detection
Method: (§3) Conversely, the Ab6-derived anti-Fc*-specific ScFv*-FcγR surface capture system was tested for its ability to detect and enrich for cells that produce bispecific antibodies. […] The Ab6-derived anti-Fc*-specific ScFv*-FcγR surface capture cell line was able to detect and distinguish the bispecific antibody (Fc/Fc*) over the Fc*/Fc* or Fc/Fc monospecific antibodies using the Fc-specific Ab2 as the detection molecule (Table 4). The FcγR surface capture cell line was not able to distinguish between the Fc/Fc*, Fc*/Fc*, and Fc/Fc IgG4 species.

[18] = target: IgG1 Fc*/Fc* monospecific antibody; assay: as above
Method: as §3

[19] = target: IgG1 Fc/Fc monospecific antibody; assay: as above
Method: as §3

T1 sequence (P01861 other isoform, or with tags, fused parts or gaps limits assumed): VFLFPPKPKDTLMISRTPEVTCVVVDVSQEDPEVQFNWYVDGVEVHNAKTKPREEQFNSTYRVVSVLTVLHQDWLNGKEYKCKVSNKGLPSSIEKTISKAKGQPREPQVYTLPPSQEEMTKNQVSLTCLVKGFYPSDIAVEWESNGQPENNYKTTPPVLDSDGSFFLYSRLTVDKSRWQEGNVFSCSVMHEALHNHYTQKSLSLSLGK

B1: Ab6 (antibody, mouse IgG2a, kappa, V domains shown)
VH: EVQLVESGGAIVKPGGSHRVSCEASGFTFSNAWMSWVRQAPGRGLEWVGRILSKTDGGTTDYAAPVKDRFTISRDDSKNMLFLQMDSLKIEDTAVYFCTTADFWSAYSSDYWGQGTLVTVSS
VL: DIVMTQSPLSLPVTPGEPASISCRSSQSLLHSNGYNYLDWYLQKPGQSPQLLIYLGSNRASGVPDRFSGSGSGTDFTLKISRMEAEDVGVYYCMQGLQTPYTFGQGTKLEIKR
notes: also called Fc*-specific Ab6; Ab6 anti-Fc* antibody
[1]
  binding result: no binding
[2]
  Kd: 0.679 nM
  koff: 0.000593 s⁻¹
  kon: 873000 M⁻¹ s⁻¹
  t½: 19 min
[3]
  Mean Fluorescence Intensity (MFI): 200 MFI
[4]
  Mean Fluorescence Intensity (MFI): 200 MFI
[5]
  Mean Fluorescence Intensity (MFI): 200 MFI
[6]
  Mean Fluorescence Intensity (MFI): 500 MFI
[7]
  Mean Fluorescence Intensity (MFI): 15 MFI
[8]
  Mean Fluorescence Intensity (MFI): 15 MFI
[9]
  Mean Fluorescence Intensity (MFI): 500 MFI
[10]
  Mean Fluorescence Intensity (MFI): 15 MFI
[11]
  Mean Fluorescence Intensity (MFI): 15 MFI

B2: Ab2 (antibody, V domains shown)
VH: QLQQSGAELAKPGASVKMSCKASGYTFTNYWIHWEKQRPEQGLEWIGYINPNTGHTEYNQKFKDKATLTADRSSSTAYMQLSSLTSEDSAVYFCARTYSGSSHFDYWGQGTTL
VL: DIVMTQTPVSLPVSLGDQASISCRSSQSLVHNNGDTFLHWYLQKPGQSPKLLIYKVSNRFSGVPDRFSGSGSGTDFTLKISRVEAEDLGVYFCSQTTLIPRTFGGGTKLEI
notes: From Velocimmune mice, captured by anti-mouse-Fc in SPR; also called Fc-specific Ab2; Ab2 anti-Fc antibody
[12]
  Mean Fluorescence Intensity (MFI): 500 MFI
[13]
  Mean Fluorescence Intensity (MFI): 350 MFI
[14]
  Mean Fluorescence Intensity (MFI): 200 MFI
[15]
  Mean Fluorescence Intensity (MFI): 200 MFI
[16]
  Mean Fluorescence Intensity (MFI): 200 MFI
[17]
  Mean Fluorescence Intensity (MFI): 150 MFI
[18]
  Mean Fluorescence Intensity (MFI): 10 MFI
[19]
  Mean Fluorescence Intensity (MFI): 10 MFI
